B1: library; numbered along this chain (parent)
chain: MAAAAAAAAEQQSSNGPVKKSMREKAVERRSVNKEHNSNFKAGYIPIDEDRLHKTGLRGRKGNLAICVIILLFILAVINLIITLVIWAVIRIGPNGCDSMEFHESGLLRFKQVSDMGVIHPLYKSTVGGRRNENLVITGNNQPIVFQQGTTKLSVENNKTSITSDIGMQFFDPRTQNILFSTDYETHEFHLPSGVKSLNVQKASTERITSNATSDLNIKVDGRAIVRGNEGVFIMGKTIEFHMGGNMELKAENSIILNGSVMVSTTRLPSSSSGDQLGSGDWVRYKLCMCADGTLFKVQVTSQNMGCQISDNPCGNTH

The data set covers variants of B1. As to the kind of experiment: SGCB cell-surface expression functional score (HA stain, bin4 vs bin1, normalised to synonymous) (log10 ratio); higher = more cell-surface SGCB (functional). The procedure, abridged:
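Codon-saturation libraries of HA-tagged, YFP-fused human beta-sarcoglycan were lentivirally transduced at MOI <0.1 into HEK293 cells stably expressing alpha-, gamma- and delta-sarcoglycan. YFP-positive cells were sorted after 72 hours, grown 5–7 days, stained on ice with Alexa Fluor 647 anti-HA, fixed, sorted into four 5% intensity bins and amplicon-sequenced. The functional score is the log ratio of highest-bin to lowest-bin variant frequency, taken as the median over codons and duplicate transductions. Synonymous variants were scaled per section to mean 0, SD 0.5.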
With MAAAAAAAAEQQSSNGPVKKSMREKAVERRSVNKEHNSNFKAGYIPIDEDRLHKTGLRGRKGNLAICVIILLFILAVINLIITLVIWAVIRIGPNGCDSMEFHESGLLRFKQVSDMGVIHPLYKSTVGGRRNENLVITGNNQPIVFQQGTTKLSVENNKTSITSDIGMQFFDPRTQNILFSTDYETHEFHLPSGVKSLNVQKASTERITSNATSDLNIKVDGRAIVRGNEGVFIMGKTIEFHMGGNMELKAENSWILNGSVMVSTTRLPSSSSGDQLGSGDWVRYKLCMCADGTLFKVQVTSQNMGCQISDNPCGNTH [I255W], the “SGCB cell-surface expression functional score (log10)” value was -1.77. Under MAAAAAAAAEQQSSNGPVKKSMREKAVERRSVNKEHNSNFKAGYIPIDEDRLHKTGLRGRKGNLAICVIILLFILAVINLIITLVIWAVIRIGPNGCDSMEFHESGLLRFKQVSDMGVIHPLYKSTVGGRRNENLVITGNNQPIVFQQGTTKLSVENNKTSITSDIGMQFFDPRTQNILFSTDYETHEFHLPSGVKSLNVQKASTERITSNATSDLNIKVDGRAIVRGNEGVFIMGKTIEFHMGGNMELKAENSYILNGSVMVSTTRLPSSSSGDQLGSGDWVRYKLCMCADGTLFKVQVTSQNMGCQISDNPCGNTH [I255Y] stands -1.08. Then MAAAAAAAAEQQSSNGPVKKSMREKAVERRSVNKEHNSNFKAGYIPIDEDRLHKTGLRGRKGNLAICVIILLFILAVINLIITLVIWAVIRIGPNGCDSMEFHESGLLRFKQVSDMGVIHPLYKSTVGGRRNENLVITGNNQPIVFQQGTTKLSVENNKTSITSDIGMQFFDPRTQNILFSTDYETHEFHLPSGVKSLNVQKASTERITSNATSDLNIKVDGRAIVRGNEGVFIMGKTIEFHMGGNMELKAENSICLNGSVMVSTTRLPSSSSGDQLGSGDWVRYKLCMCADGTLFKVQVTSQNMGCQISDNPCGNTH [I256C], with -0.43. Regarding MAAAAAAAAEQQSSNGPVKKSMREKAVERRSVNKEHNSNFKAGYIPIDEDRLHKTGLRGRKGNLAICVIILLFILAVINLIITLVIWAVIRIGPNGCDSMEFHESGLLRFKQVSDMGVIHPLYKSTVGGRRNENLVITGNNQPIVFQQGTTKLSVENNKTSITSDIGMQFFDPRTQNILFSTDYETHEFHLPSGVKSLNVQKASTERITSNATSDLNIKVDGRAIVRGNEGVFIMGKTIEFHMGGNMELKAENSIKLNGSVMVSTTRLPSSSSGDQLGSGDWVRYKLCMCADGTLFKVQVTSQNMGCQISDNPCGNTH [I256K], the “SGCB cell-surface expression functional score (log10)” value came out at 0.15.

For the variant MAAAAAAAAEQQSSNGPVKKSMREKAVERRSVNKEHNSNFKAGYIPIDEDRLHKTGLRGRKGNLAICVIILLFILAVINLIITLVIWAVIRIGPNGCDSMEFHESGLLRFKQVSDMGVIHPLYKSTVGGRRNENLVITGNNQPIVFQQGTTKLSVENNKTSITSDIGMQFFDPRTQNILFSTDYETHEFHLPSGVKSLNVQKASTERITSNATSDLNIKVDGRAIVRGNEGVFIMGKTIEFHMGGNMELKAENSIFLNGSVMVSTTRLPSSSSGDQLGSGDWVRYKLCMCADGTLFKVQVTSQNMGCQISDNPCGNTH [I256F], the “SGCB cell-surface expression functional score (log10)” value came out at 0.01.

Regarding MAAAAAAAAEQQSSNGPVKKSMREKAVERRSVNKEHNSNFKAGYIPIDEDRLHKTGLRGRKGNLAICVIILLFILAVINLIITLVIWAVIRIGPNGCDSMEFHESGLLRFKQVSDMGVIHPLYKSTVGGRRNENLVITGNNQPIVFQQGTTKLSVENNKTSITSDIGMQFFDPRTQNILFSTDYETHEFHLPSGVKSLNVQKASTERITSNATSDLNIKVDGRAIVRGNEGVFIMGKTIEFHMGGNMELKAENSIRLNGSVMVSTTRLPSSSSGDQLGSGDWVRYKLCMCADGTLFKVQVTSQNMGCQISDNPCGNTH [I256R], the “SGCB cell-surface expression functional score (log10)” value was determined as 0.05.

As to MAAAAAAAAEQQSSNGPVKKSMREKAVERRSVNKEHNSNFKAGYIPIDEDRLHKTGLRGRKGNLAICVIILLFILAVINLIITLVIWAVIRIGPNGCDSMEFHESGLLRFKQVSDMGVIHPLYKSTVGGRRNENLVITGNNQPIVFQQGTTKLSVENNKTSITSDIGMQFFDPRTQNILFSTDYETHEFHLPSGVKSLNVQKASTERITSNATSDLNIKVDGRAIVRGNEGVFIMGKTIEFHMGGNMELKAENSIPLNGSVMVSTTRLPSSSSGDQLGSGDWVRYKLCMCADGTLFKVQVTSQNMGCQISDNPCGNTH [I256P], the “SGCB cell-surface expression functional score (log10)” value is -0.12. Then MAAAAAAAAEQQSSNGPVKKSMREKAVERRSVNKEHNSNFKAGYIPIDEDRLHKTGLRGRKGNLAICVIILLFILAVINLIITLVIWAVIRIGPNGCDSMEFHESGLLRFKQVSDMGVIHPLYKSTVGGRRNENLVITGNNQPIVFQQGTTKLSVENNKTSITSDIGMQFFDPRTQNILFSTDYETHEFHLPSGVKSLNVQKASTERITSNATSDLNIKVDGRAIVRGNEGVFIMGKTIEFHMGGNMELKAENSIVLNGSVMVSTTRLPSSSSGDQLGSGDWVRYKLCMCADGTLFKVQVTSQNMGCQISDNPCGNTH [I256V], with 0.31; and MAAAAAAAAEQQSSNGPVKKSMREKAVERRSVNKEHNSNFKAGYIPIDEDRLHKTGLRGRKGNLAICVIILLFILAVINLIITLVIWAVIRIGPNGCDSMEFHESGLLRFKQVSDMGVIHPLYKSTVGGRRNENLVITGNNQPIVFQQGTTKLSVENNKTSITSDIGMQFFDPRTQNILFSTDYETHEFHLPSGVKSLNVQKASTERITSNATSDLNIKVDGRAIVRGNEGVFIMGKTIEFHMGGNMELKAENSIELNGSVMVSTTRLPSSSSGDQLGSGDWVRYKLCMCADGTLFKVQVTSQNMGCQISDNPCGNTH [I256E], with 0.36; and MAAAAAAAAEQQSSNGPVKKSMREKAVERRSVNKEHNSNFKAGYIPIDEDRLHKTGLRGRKGNLAICVIILLFILAVINLIITLVIWAVIRIGPNGCDSMEFHESGLLRFKQVSDMGVIHPLYKSTVGGRRNENLVITGNNQPIVFQQGTTKLSVENNKTSITSDIGMQFFDPRTQNILFSTDYETHEFHLPSGVKSLNVQKASTERITSNATSDLNIKVDGRAIVRGNEGVFIMGKTIEFHMGGNMELKAENSIDLNGSVMVSTTRLPSSSSGDQLGSGDWVRYKLCMCADGTLFKVQVTSQNMGCQISDNPCGNTH [I256D], with 0.02. Then MAAAAAAAAEQQSSNGPVKKSMREKAVERRSVNKEHNSNFKAGYIPIDEDRLHKTGLRGRKGNLAICVIILLFILAVINLIITLVIWAVIRIGPNGCDSMEFHESGLLRFKQVSDMGVIHPLYKSTVGGRRNENLVITGNNQPIVFQQGTTKLSVENNKTSITSDIGMQFFDPRTQNILFSTDYETHEFHLPSGVKSLNVQKASTERITSNATSDLNIKVDGRAIVRGNEGVFIMGKTIEFHMGGNMELKAENSIMLNGSVMVSTTRLPSSSSGDQLGSGDWVRYKLCMCADGTLFKVQVTSQNMGCQISDNPCGNTH [I256M], with 0.29; and MAAAAAAAAEQQSSNGPVKKSMREKAVERRSVNKEHNSNFKAGYIPIDEDRLHKTGLRGRKGNLAICVIILLFILAVINLIITLVIWAVIRIGPNGCDSMEFHESGLLRFKQVSDMGVIHPLYKSTVGGRRNENLVITGNNQPIVFQQGTTKLSVENNKTSITSDIGMQFFDPRTQNILFSTDYETHEFHLPSGVKSLNVQKASTERITSNATSDLNIKVDGRAIVRGNEGVFIMGKTIEFHMGGNMELKAENSINLNGSVMVSTTRLPSSSSGDQLGSGDWVRYKLCMCADGTLFKVQVTSQNMGCQISDNPCGNTH [I256N], with 1.09; and MAAAAAAAAEQQSSNGPVKKSMREKAVERRSVNKEHNSNFKAGYIPIDEDRLHKTGLRGRKGNLAICVIILLFILAVINLIITLVIWAVIRIGPNGCDSMEFHESGLLRFKQVSDMGVIHPLYKSTVGGRRNENLVITGNNQPIVFQQGTTKLSVENNKTSITSDIGMQFFDPRTQNILFSTDYETHEFHLPSGVKSLNVQKASTERITSNATSDLNIKVDGRAIVRGNEGVFIMGKTIEFHMGGNMELKAENSISLNGSVMVSTTRLPSSSSGDQLGSGDWVRYKLCMCADGTLFKVQVTSQNMGCQISDNPCGNTH [I256S], with 0.62. Then MAAAAAAAAEQQSSNGPVKKSMREKAVERRSVNKEHNSNFKAGYIPIDEDRLHKTGLRGRKGNLAICVIILLFILAVINLIITLVIWAVIRIGPNGCDSMEFHESGLLRFKQVSDMGVIHPLYKSTVGGRRNENLVITGNNQPIVFQQGTTKLSVENNKTSITSDIGMQFFDPRTQNILFSTDYETHEFHLPSGVKSLNVQKASTERITSNATSDLNIKVDGRAIVRGNEGVFIMGKTIEFHMGGNMELKAENSIALNGSVMVSTTRLPSSSSGDQLGSGDWVRYKLCMCADGTLFKVQVTSQNMGCQISDNPCGNTH [I256A], with -0.2; and MAAAAAAAAEQQSSNGPVKKSMREKAVERRSVNKEHNSNFKAGYIPIDEDRLHKTGLRGRKGNLAICVIILLFILAVINLIITLVIWAVIRIGPNGCDSMEFHESGLLRFKQVSDMGVIHPLYKSTVGGRRNENLVITGNNQPIVFQQGTTKLSVENNKTSITSDIGMQFFDPRTQNILFSTDYETHEFHLPSGVKSLNVQKASTERITSNATSDLNIKVDGRAIVRGNEGVFIMGKTIEFHMGGNMELKAENSIGLNGSVMVSTTRLPSSSSGDQLGSGDWVRYKLCMCADGTLFKVQVTSQNMGCQISDNPCGNTH [I256G], with 0.26. For the variant MAAAAAAAAEQQSSNGPVKKSMREKAVERRSVNKEHNSNFKAGYIPIDEDRLHKTGLRGRKGNLAICVIILLFILAVINLIITLVIWAVIRIGPNGCDSMEFHESGLLRFKQVSDMGVIHPLYKSTVGGRRNENLVITGNNQPIVFQQGTTKLSVENNKTSITSDIGMQFFDPRTQNILFSTDYETHEFHLPSGVKSLNVQKASTERITSNATSDLNIKVDGRAIVRGNEGVFIMGKTIEFHMGGNMELKAENSIQLNGSVMVSTTRLPSSSSGDQLGSGDWVRYKLCMCADGTLFKVQVTSQNMGCQISDNPCGNTH [I256Q], the “SGCB cell-surface expression functional score (log10)” value was -0.26.

As for MAAAAAAAAEQQSSNGPVKKSMREKAVERRSVNKEHNSNFKAGYIPIDEDRLHKTGLRGRKGNLAICVIILLFILAVINLIITLVIWAVIRIGPNGCDSMEFHESGLLRFKQVSDMGVIHPLYKSTVGGRRNENLVITGNNQPIVFQQGTTKLSVENNKTSITSDIGMQFFDPRTQNILFSTDYETHEFHLPSGVKSLNVQKASTERITSNATSDLNIKVDGRAIVRGNEGVFIMGKTIEFHMGGNMELKAENSITLNGSVMVSTTRLPSSSSGDQLGSGDWVRYKLCMCADGTLFKVQVTSQNMGCQISDNPCGNTH [I256T], the “SGCB cell-surface expression functional score (log10)” value stood at 0.37.

MAAAAAAAAEQQSSNGPVKKSMREKAVERRSVNKEHNSNFKAGYIPIDEDRLHKTGLRGRKGNLAICVIILLFILAVINLIITLVIWAVIRIGPNGCDSMEFHESGLLRFKQVSDMGVIHPLYKSTVGGRRNENLVITGNNQPIVFQQGTTKLSVENNKTSITSDIGMQFFDPRTQNILFSTDYETHEFHLPSGVKSLNVQKASTERITSNATSDLNIKVDGRAIVRGNEGVFIMGKTIEFHMGGNMELKAENSILLNGSVMVSTTRLPSSSSGDQLGSGDWVRYKLCMCADGTLFKVQVTSQNMGCQISDNPCGNTH [I256L]: the “SGCB cell-surface expression functional score (log10)” value was 0.37.

For the variant MAAAAAAAAEQQSSNGPVKKSMREKAVERRSVNKEHNSNFKAGYIPIDEDRLHKTGLRGRKGNLAICVIILLFILAVINLIITLVIWAVIRIGPNGCDSMEFHESGLLRFKQVSDMGVIHPLYKSTVGGRRNENLVITGNNQPIVFQQGTTKLSVENNKTSITSDIGMQFFDPRTQNILFSTDYETHEFHLPSGVKSLNVQKASTERITSNATSDLNIKVDGRAIVRGNEGVFIMGKTIEFHMGGNMELKAENSIHLNGSVMVSTTRLPSSSSGDQLGSGDWVRYKLCMCADGTLFKVQVTSQNMGCQISDNPCGNTH [I256H], the “SGCB cell-surface expression functional score (log10)” value stood at 0.01.
